The DeepSol protein solubility set

Test: soluble on expression in E. coli; label from the status in PepcDB or PDB records

## MGSDKIHHHHHHMANELKVLEGMDVVALARKHSDQATVSGQVIPWQTSLSFDPSVDSDSTVTKDGNVATRSSASTDLEVEFLNNTAAIADVMYDSLFDGELLDFWILYRKRKNSAGKYYAWYMQVTVQEDSSDNDPDDHSTRDVTFSVNGTPKRGWTTLDDETQEQVDYVFLGVGKVTDTDKTGGGTVWDKDVDPGTNTADTAPAQSSSGTAPAQGGSSTGA
  soluble on expression in E. coli: not soluble

## MAFPFDILHLEIIRSTLESEKDRCEAKEKFGTIIDNLNGPADIEKYESLVQKAFLHANAETKLESIGFRVGRQLVEKVSKESPKLVTELEIVKFICKDFWSSVFGKQVDNLRTNHQGVYVVQDGRFTTLRSFPEGDQYVKESGYFLAFPCGLLRGALAGLNIRAIVTPTIESVPSVKFHIQVQPK
  soluble on expression in E. coli: not soluble

## MGSDKIHHHHHHMKTVTRYACQKCGYQSAKWLGKCPDCAAWNSFVEEVTGGGRKGAASLPAATRPVPICDVASEAETRLSCGISEFDRVLGGGLVSGSLVLIGGDPGIGKSTILLQVMDHLARTAGPVLYVSGEESARQTKMRGERLGIGARELLVLAETSLELILSQVTALAPRALVIDSIQTVFSANLESAPGSVSQVRECAGRLMELAKRNGIPTLLVGHVTKDGSLAGPRVLEHMVDTVLYFEGDPGHAFRILRAVKNRFGSTNEIGVFEMKEGGLSEVRNPSELFLAERPLGVSGSAVVTTIEGSRPLLVELQALVTPSSLGVPRRTTLGVDHNRLALLVAVLDKKVGLHLSGQDIFLNAAGGARLSEPAIDLGMVAALASSHLDKIIDPHTVIVGEVGLAGEVRAITQAETRVREAAKLGFTRAVIPAGSVRQVGDVPGMNVVGVKSLDEALEQLF
  soluble on expression in E. coli: not soluble

## GPGSMDAGSDEAVQKKMQEFLSKDAMEELRNIGDRTESRVRHGLLPRDYQQQQHQKDYQTANVTHEEEVNSYIQQRRTWRENVFLLRDFEYWRLRAEYYPYVRRGDEQNDNFFIRGIACHPRLSDYPMCRKPIQDYFVCRDKNKILQLFNLCAPMKEQFCACINEVFVKNHERGDKKFNAQRNEYFEEQRNRRLSKMMAHVEDSMEKRKKLQD
  soluble on expression in E. coli: not soluble

## HVKVGFSPEKLRPYTTMPADFQQFWENQKAELAKFPLTYTKEHVKKYSTDQIDCYLIKLQVNQRGQSIYGYLFYPKKEGKYPVVLCPPGAGIKTIKEPLRHKYYAEQGCIRFEIEIHGLNPEMSEEEFKEISAAFNGRENGYLSNGLDSRDNYYMKRVYLACVRSIDLLTSLPEWDGKNVVVQGGSQGGALALVTAGLDQRVTACVANHPALSDMAGYKAGRAGGYPHFFRNTVDMDTPEKIRTMAYYDVVNFAQLIRADTYMTWGFNDNVCPPTTSYIVYNVLNCPKEALITPINEHWTSSDTEYGHLLWIKKHLK
  soluble on expression in E. coli: not soluble

## GLIVDTRDVEERVHVMRKTKLAPTVAHGVFNPEFGPAALSNKDPRLNEGVVLDEVIFSKHKGDTKMSAEDKALFRRCAADYASRLHSVLGTANAPLSIYEAIKGVDGLDAMEPDTAPGLPWALQGKRRGALIDFENGTVGPEVEAALKLMEKREYKFACQTFLKDEIRPMEKVRAGKTRIVDVLPVEHILYTRMMIGRFCAQMHSNNGPQIGSAVGCNPDVDWQRFGTHFAQYRNVWDVDYSAFDANHCSDAMNIMFEEVFRTEFGFHPNAEWILKTLVNTEHAYENKRITVEGGMPSGCSATSIINTILNNIYVLYALRRHYEGVELDTYTMISYGDDIVVASDYDLDFEALKPHFKSLGQTITPADKSDKGFVLGHSITDVTFLKRHFHMDYGTGFYKPVMASKTLEAILSFARRGTIQEKLISVAGLAVHSGPDEYRRLFEPFQGLFEIPSYRSLYLRWVNAVCGDAAALE
  soluble on expression in E. coli: soluble

## MGSDKIHHHHHHMKGNAPVLAAVDISKGFRVYRAPHQRMLQAIWGERKKFYSEFWALRNVSFQVFPGEVVGVIGCNGSGKSTLLQILAGTLRPTSGQVVRPERVAALLELGAGFNMEYTGRENIIFNAMLLGLGEQEISERLDEIIQFADIGEFIDRPVRTYSSGMFVRLAFSIAAYVDADVLIVDEALAVGDAAFQFKCLNRLEELLLKGITILLVSHDIQLIKSYCSRAIYLSKGRVIFDGDCETATELYLRDSIETQRAEVRSGSLIASGEHGNSVIAYGNGQGRFLSIRMGVLDEARDYFDSGERVWVEVLVQFDLPVPEHPKITLTIRDQRGYNLYGINNLLLGKALNVEPDGRLRTRISFDCDLQAGEYALTFRLENSLSESVCELMDKKVNAAIFRVFNSPKCFDAVVNLHGAFEPVPFCCETRATQ
  soluble on expression in E. coli: not soluble

## MSLIITRTPLRITFVGGGTDLPDFYTRHGGSVVSAAINRYIYIIVNKKFDSKIRVSYSRTEIVDKVDEIRHPTVREALRLLELDGGIEILSISDVPSQGTGLGSSSSFLVGLLNALHAYKSEYVSNETLAEEAVKIEREILREAGGKQDQYMAAYGGIDLLQFFQNGEVRVKPIPLNTERLKYLRDNTALLYTGVERSSTDIHTDQISKIDDHIQEYLEMKKLAEEFAVKLYASDIKELGEIMDRNWMLKRKLSGKITNDLIDRLYIRAKELGAYGGKLIGAGGGGFLLFFIDHNKRENLKELGLRQMDYDFDFEGSRIIYYQDREGHHHHHH
  soluble on expression in E. coli: soluble

## MVVFGTTFFNFDSFIGKTDSIEIIGKSVFPYCYHNILPLLNDSGRYSLGDARRPLHETAVLVEDVVHTQLINLLQQAAEVSQLRGARVITPEDLLFLMRKDKKKLRRLLKYMFIRDYKSKIVKGIDEDDLLEDKLSGSNNANKRQKIAQDFLNSIDQTGELLAMFEDDEIDEVKQERMERAERQTRIMDSAQYAEFCESRQLSFSKKASKFRDWLDCSSMEIKPNVVAMEILAYLAYETVAQLVDLALLVRQDMVTKAGDPFSHAISATFIQYHNSAESTAACGVEAHSDAIQPCHIREAIRRYSHRIGPLSPFTNAYRRNGMAFLAC
  soluble on expression in E. coli: not soluble

## MIKIPRGTQDILPEDSKKWRYIENQLDELMTFYNYKEIRTPIFESTDLFARGVGDSTDVVQKEMYTFKDKGDRSITLRPEGTAAVVRSYIEHKMQGNPNQPIKLYYNGPMFRYERKQKGRYRQFNQFGVEAIGAENPSVDAEVLAMVMHIYQSFGLKHLKLVINSVGDMASRKEYNEALVKHFEPVIHEFCSDCQSRLHTDPMRILDCKVDRDKEAIKTAPRITDFLNEESKAYYEQVKAYLDDLGIPYTEDPNLVRGLDYYTHTAFELMMDNPNYDGAITTLCGGGRYNGLLELLDGPSETGIGFALSIERLLLALEEEGIELDIEENLDLFIVTMGDQADRYAVKLLNHLRHNGIKADKDYLQRKIKGQMKQADRLGAKFTIVIGDQELENNKIDVKNMTTGESETIELDALVEYFKK
  soluble on expression in E. coli: soluble

## MGSDKIHHHHHHMKYDIPTMTAEAVSLLKSLISIPSISREETQAADFLQNYIEAEGMQTGRKGNNVWCLSPMFDLKKPTILLNSHIDTVKPVNGWRKDPFTPREENGKLYGLGSNDAGASVVSLLQVFLQLCRTSQNYNLIYLASCEEEVSGKEGIESVLPGLPPVSFAIVGEPTEMQPAIAEKGLMVLDVTATGKAGHAARDEGDNAIYKVLNDIAWFRDYRFEKESPLLGPVKMSVTVINAGTQHNVVPDKCTFVVDIRSNELYSNEDLFAEIRKHIACDAKARSFRLNSSRIDEKHPFVQKAVKMGRIPFGSPTLSDQALMSFASVKIGPGRSSRSHTAEEYIMLKEIEEAIGIYLDLLDGLKL
  soluble on expression in E. coli: not soluble

## MSLAMNKVPGYNIYIGGVFALKNKVAMSGANITHVLSVIRLRPKDDLFAGYQHHRIEVDDLDDENLLEHFPSAIKFIQSGLDAGGGVLVHWPLTASSAMGKSRSATVCIAYLLRRQRNALTPQSALALLRESRPLCEPNPGFMEQLNVYYQMGEGHHHHHH
  soluble on expression in E. coli: not soluble

## MGSDKIHHHHHHMEFSPPLQRATLIQRYKRFLADVITPDGRELTLHCPNTGAMTGCATPGDTVWYSTSDNTKRKYPHTWELTQSQSGAFICVNTLWANRLTKEAILNESISELSGYSSLKSEVKYGSERSRIDFMLQADSRPDCYIEVKSVTLAENEQGYFPDAVTERGQKHLRELMSVAAEGQRAVIFFAVLHSAITRFSPARHIDEKYAQLLSEAQQRGVEILAYKAEISAEGMALKKSLPVTL
  soluble on expression in E. coli: not soluble

## MKEMTVSEIREVQLEMLAYIDKVARDNKIEYSLGGGSLLGAMRHKGFIPWDDDIDLMLERSQYERLMKALADANNSDFKLLHHSVEKNLWPFAKLYHTKSMYLSKTDRIHPWTGIFIDIFPLDRLPESAEERQRFFKKVHSAAANLMCTTYPNFASGSRKLYANARLILGLPRFIAYHGQAKKRAEIVDQVMETYNNQEVPYMGYTDSRYRLKEYFPREIFSEYEDVMFENIKTRKIKNEHAYLNQLYGGSYMELPPESKRESHSYYTWYWKEGLEHHHHHH
  soluble on expression in E. coli: soluble

## VTLLVKSPNQRHRDLELSGDRGWSVGHLKAHLSRVYPERPRPEDQRLIYSGKLLLDHQCLRDLLPKQEKRHVLHLVCNVK
  soluble on expression in E. coli: soluble

## MAHHHHHHMILDLFDLCATPYAKRRSHLHSFMSELEDRLFRAEMALTQRRRSAVSPKEKRALGAVRPINVVVQEVLRETPILCFDEFQTFDVAHAALLAAFFSEAFREGLFFITTSNRPPEDLCRVSASFNAFLPVLRQHCHVVHCADIRDYRVKEAVERHHQLIFLHPNTKTNVERCCGVSSMLSGLVAESLHGSRRTHCGTTAAAS
  soluble on expression in E. coli: soluble

## MGSDKIHHHHHHMPKLGFVQVEVSTRCQLSCLMCPKSCFSDEWIAKDMNMETFRLIPFKKFHYAHLQGWGEPLLNPNIGEMVDIAAKSCKVGLTTNGLLIDHHIDSILKLDLLAVSVASGDARQHERVRGCSLEKLAGNIKLVSESRGKRPKIVIATMMLKSTIESLPKLIDFAAECGADEVIANNLDYIPSKELVGEEVFGLTADKDVEKAVEQAGKRAEELGIGFIAKPRLMEEALVCAENPVENCVVAVDGRIAPCAYLNLPTASETIPRWFRGRTVEVPKVYFSSFKEWLKSDFRDTFKRRLQVLHQSLPTELPPLPQPCRTCYKAYSV
  soluble on expression in E. coli: not soluble

## MGSDKIHHHHHHMTTSIDTLSAFVYAADLGSFSAAARRLGKSQSTISEAIANLEIDLGSSLFDRGTRAPTLTPAGRLLLPQARQIMAASQDLRRQAAQLNAGVETRLTIVLSDTFQSRTLESVACRLEERYPLLELECLVGEQEDVLDLILSGRAQLGLVGAMDSYPPDVRHQRQREASELALYAAHRHPLAGMDRIDEQQLDQHRQLRLNTYSDKTPADSGQRQWYAPSYLMLLDMARLGVGWAELPCWLVHSFGGGELKQLDVAGWPKRMPVDLVWAANKPLGAAAGWLLQQLTDGAEQR
  soluble on expression in E. coli: not soluble

## SRLKLFSILSMMLLRPKDTVDSQGQFRGYLDMVINDILAPNLQWHAGRTAAAIRTAAISCLWALISSDILSAKQVQEAQETLMPQVLATLEDDSQTTRLMSCRIINMFLKNSGDTMEPEKFLKVYPELLKRLDDVSNDVRMAAASALLTWLKCIESLDGKSAYQSSVQFLYRELLVHLDDPESAIQDTVLEVLKEGSVLFPDVLVRETEAVVHKHRSATYCEQLLQHMQTMAAAR
  soluble on expression in E. coli: soluble

## MGSDKIHHHHHHMAKLLPYQKRWINDRAPVKFWEKSRRIGASWGDAADSALVASKVKDDGGMSTYYLSYNKDMTRQYVADVAGWAKKFNLVAGELEEIVLADEDKDVTIYQVRFASGHVVQGLSSNPSNLRSKQGRVRIDEAAFVEDLGELLKAAIALTMWGGDVAVISTHNGEDSEFNQYIQDIRAGKREYSLHRTDLDDALAEGLYKAICSAKGLTWSVEAEIRWRQKLIADYGDGADEELFCVPSRSSGNWLSRNLIEPCMSAEIPVLRWSPPTANFVDWPLDRAYREVQDWCEGELRPLLDKLHREYVGCRHFFGEDFGRSGDLTVDVPLLELENLSLVTPFLLELRNAPYRTQEQMLAYFVDRLPRFSGGALDARGNGQALAEYARQRYGPELIQEVMLSQGWYREHMPPLKARLEDRTILLPKDAGVLDDLRGIKVFKGIARPPEASIKGKDGQRHCDSAVALALALYACNSIEAGEEWACATAGGGMARRMTHGY
  soluble on expression in E. coli: not soluble
